The target in this experiment is T1, KDR/flk-1 VEGF receptor of HUVEC cells (human, UniProt P35968 20-1356).
T1 construct: whole, on cells; Endogenous receptor on confluent HUVEC cells; also called the larger VEGF receptor of HUVEC cells
The experiment can be described thus: overview table, row 'Binding to Flk-1 and Flt-1 receptors'.

T1 sequence (P35968 20-1356): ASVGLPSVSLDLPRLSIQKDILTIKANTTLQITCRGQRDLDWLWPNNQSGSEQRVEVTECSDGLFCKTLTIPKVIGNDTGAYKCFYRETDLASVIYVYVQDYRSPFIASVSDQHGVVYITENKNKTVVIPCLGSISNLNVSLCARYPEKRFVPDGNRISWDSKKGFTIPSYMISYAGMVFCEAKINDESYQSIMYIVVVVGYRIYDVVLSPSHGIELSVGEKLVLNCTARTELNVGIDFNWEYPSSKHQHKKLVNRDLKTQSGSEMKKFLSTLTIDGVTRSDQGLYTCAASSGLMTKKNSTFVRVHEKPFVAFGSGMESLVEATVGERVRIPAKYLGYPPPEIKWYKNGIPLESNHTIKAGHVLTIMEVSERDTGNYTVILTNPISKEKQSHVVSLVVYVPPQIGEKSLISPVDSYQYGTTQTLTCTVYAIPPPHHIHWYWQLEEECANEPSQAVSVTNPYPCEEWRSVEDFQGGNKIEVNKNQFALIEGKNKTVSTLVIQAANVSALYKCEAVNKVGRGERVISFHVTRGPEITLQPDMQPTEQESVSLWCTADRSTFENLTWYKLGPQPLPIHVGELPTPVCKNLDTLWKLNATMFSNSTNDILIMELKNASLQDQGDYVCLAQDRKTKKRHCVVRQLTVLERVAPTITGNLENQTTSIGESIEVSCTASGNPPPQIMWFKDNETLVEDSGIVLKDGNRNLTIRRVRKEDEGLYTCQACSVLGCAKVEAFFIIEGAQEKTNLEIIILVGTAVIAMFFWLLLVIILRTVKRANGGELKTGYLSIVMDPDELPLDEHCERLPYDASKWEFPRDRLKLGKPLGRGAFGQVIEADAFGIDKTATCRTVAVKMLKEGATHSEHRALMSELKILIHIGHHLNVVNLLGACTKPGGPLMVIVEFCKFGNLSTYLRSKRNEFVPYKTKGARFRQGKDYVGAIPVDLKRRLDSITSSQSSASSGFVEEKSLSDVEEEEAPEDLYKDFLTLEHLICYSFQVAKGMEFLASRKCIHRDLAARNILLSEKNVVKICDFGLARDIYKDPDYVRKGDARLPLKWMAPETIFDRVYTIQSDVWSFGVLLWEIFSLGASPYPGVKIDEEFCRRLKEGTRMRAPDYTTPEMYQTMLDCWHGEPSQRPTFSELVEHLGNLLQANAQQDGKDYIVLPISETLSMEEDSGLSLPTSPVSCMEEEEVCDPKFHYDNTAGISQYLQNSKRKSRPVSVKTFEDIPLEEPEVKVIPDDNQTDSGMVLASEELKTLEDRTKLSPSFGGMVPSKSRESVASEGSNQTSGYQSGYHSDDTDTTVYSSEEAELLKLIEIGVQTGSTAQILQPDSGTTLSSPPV

B1: VEGF145 (recombinant, produced in Sf9 insect cells by baculovirus) (ligand)
chain: APMAEGGGQNHHEVVKFMDVYQRSYCHPIETLVDIFQEYPDEIEYIFKPSCVPLMRCGGCCNDEGLECVPTEESNITMQIMRIKPHQGQHIGEMSFLQHNKCECRPKKDRARQEKKSVRGKGKGQKRKRKKSRYKSWSVCDKPRR
notes: partially purified on heparin-sepharose; also called VEGF exons 1-5, 6a, 8
In the case of B1, the binding result was “binds”.

B2: VEGF121 (ligand, human, UniProt P15692-9 27-147, looked up)
chain: APMAEGGGQNHHEVVKFMDVYQRSYCHPIETLVDIFQEYPDEIEYIFKPSCVPLMRCGGCCNDEGLECVPTEESNITMQIMRIKPHQGQHIGEMSFLQHNKCECRPKKDRARQEKCDKPRR
notes: mature
For B2, the binding result is on record as “binds”.

For the origin of these results see patent publication EP1426444A2 (Technion Research & Development Co., Ltd., dated 2004).
